{"source": "patent US20120034651A1", "about": "(JAPAN SCIENCE AND TECHNOLOGY AGENCY, published 2012)", "proteins": {"B1": {"name": "36-38A TCL1 (other, human, UniProt P56279 1-114, looked up)", "chain": "MAECPTLGEAVTDHPDRLWAWEKFVYLDEKQHAWLAAAIEIKDRLQLRVLLRREDVVLGRPMTPTQIGPSLLPIMWQLYPDGRYRSSDSSFWRLVYHIKIDGVEDMLLELLPDD"}}, "molecular_target": "the molecule itself", "assay": "not described in this filing", "data": [{"protein": "B1", "values": [{"measurement": "binding result", "result": "no binding"}]}]}
